# Assay: soluble on expression in E. coli; label from the status in PepcDB or PDB records
row,Sequence,soluble on expression in E. coli
1,HQWQADEEAVRSATCSFSVKYLGCVEVFESRGMQVCEEALKVLRQSRRRPVRGLLHVSGDGLRVVDDETKGLIVDQTIEKVSFCAPDRNHERGFSYICRDGTTRRWMCHGFLACKDSGERLSHAVGCAFAVCLER,soluble
2,HRWITRPKFTHFDLHTLNWDLCLTQANHKSNLALEMLKMLLDSLPETVEKIQTALGQNDQATMLSTIHKLHGASCYCGVPTTQRLCQEIESALKRQTPVEDLEPEILELLDELTKVESAVKQVLSQLSAEITDDQKNGLL,soluble
3,HYHGIAANPADIQHEFCTSAQSDLNETQWLLAAKSLGLKAKVVRQPIKRLAMATLPALVWCDDGNHFILAKTDGEGEHAQFLIQDLVTNKSAVLSFAEFSNRYSGKLILVASRASVLGSLAKFDFTWFIPAVIK,not soluble
4,IARVVVHPDYRADGLGILAVRTAVEWIEERRVPEMRMRKHLVETIAQMARFNPFFEKAGFYYLWDTASGKPVLYKPLSEEAE,not soluble
5,ICMNVENEVTHTQLQFNHTDKYCGNIKNLISCKLYQHALTLIDSFRHDKSI,not soluble
6,IGAVNYSIGANIATNKNKITNLGGSDNIIQTSSYIVKYILKKGESIGSFYGFKTDGLYTQADIDAGHYYTLSGVVPNAGDIKFVPQRDIEYKQEITDEDRTILGKDVPDFTYGVNLSLQYKGFEFSMFGQGISGTKVAFDVYGVHPFYHGQDSPRKYHLKRWTEENPNPHAAYPRIYSASSVHTTYNRNFSDYHLFDSDYFRFKTLSLGYTVPSATVKNWGLQSLKVYVTGENLFTVRADKKMEDFDPETAGGVIYTLGTKSVAFGVNISF,not soluble
7,IIGQVDEISTTDLIEEEENAVLITAEGYAKRMSLEEFRVQSRGGVGVIGASVSPGDEIAVFRICNSTDRLLIFTNTGRAFWINAYEIPKMDRTARGTTLKRLIRLENGEKVVSALGVKDF,soluble
8,IIYKETKPEEYNLRNPVVTQDYTVSMSGGNDRGTYYASLGYNDSPGAPITTEYTRYNFTFNGSYKIADWLKTTSNATFSRANYVWLNNDWGTEADYFGRVMSSPPTVRFEDEDGNSTLGPSPGDGNQTYVARSYDQDNERTKLTLMQSVEANLFKGLVLRASASWYYFHTVEENMRKDYETVPGQWDRTRSTSASYSRQFSQTYNAVLDYTTTFATSHNLNVMLGSEFYDQYNNGFSASGFGASTDDFKKLGLTDAGEGKRSIDSSHSRYRILSYFGRLNYDYEGKYLFSGVFRYDGYSSLLGKNRWGFFPGVSGGWVFTKEDFVKESLPFLYYGKLRASYGLNGNASGIGPYTLQGSYNSNKYHGNNGFLIGALPNPSLRWEKTASFDIGLNVGLLDGRLNLDIDYYNRLTSDKYADLTLPSTTGFSSIRNNNGKLRNRGIELQLSGKIMETRDFTWDASLNITYNKNKIIALPYNKEPRNRQEGQQVYTGRKIANPETGVFEDEKVWVGGFQEGMEYGVLVGYQAEGIYQSMDDIPGDLVVKSGNAQGKYQYGPDAWKRLSAAEQAKGVEIKPGDMKWKDVNGDGMIDQYDQVVIGNTTPRWFGGFNTTMSWKGLSLYARFDFALDYWVYDNQTPWLLGCMQGTYNTTKDVFNTWNESNPNAKYPRYVYGDQLGTANYNRTSTLFASKGNYLGVRELSLSYTLPQELSKKLYMQKLQFSITGQNLGYLTSARTVSPEISSGYPLPRTVILGVNVTF,not soluble
9,ILGPHHLDEYVRVWAEYDPAACGRIHYKDMYSLLRVISPPLGLGKKCPHRVACKRLLRMDLPVADDNTVHFNSTLMALIRTALDIKIAKGGADKQQMDAELRKEMMAIWPNLSQKTLDLLVTPHKSTDLTVGKIYAAMMIMEYYRQSKAKKLQAMREEQDRTPLMFQRMEPPSPTQEGGPGQNALPSTQLDPGGALMAHESGLKESPSWVTQRAQEMFQKTGTWSPE,not soluble
10,INDPAKSAAPYHDEFPLFRSANMASPDKLSTGIGFHSFRIPAVVRTTTGRILAFAEGRRHTNQDFGDINLVYKRTKTTANNGASPSDWEPLREVVGSGAGTWGNPTPVVDDDNTIYLFLSWNGATYSQNGKDVLPDGTVTKKIDSTWEGRRHLYLTESRDDGNTWSKPVDLTKELTPDGWAWDAVGPGNGIRLTTGELVIPAMGRNIIGRGAPGNRTWSVQRLSGAGAEGTIVQTPDGKLYRNDRPSQKGYRMVARGTLEGFGAFAPDAGLPDPACQGSVLRYNSDAPARTIFLNSASGTSRRAMRVRISYDADAKKFNYGRKLEDAKVSGAGHEGGYSSMTKTGDYKIGALVESDFFNDGTGKNSYRAIIWRRFNLSWILNGPNN,soluble
11,INQYNQKKSQEYTDMQLLLQKESDFAQYYEMILSQSENQSILIHDIKKHLQSIKLLNEKNDSDKINAYIQQLLESSDLKETSKICDNEMLNAILCRYQRQCNEKHIVFHTDIRSDTVQNIYQHDLTSLFCNLLDNALESADNIPDSFIELTVEKKENSPFIIIILINSCRSTPVYDQDGLPVSHKANKGRHGFGIKSIKKVVKQYHGNLQMYYDNDSGTFHTIITLKQ,not soluble
12,INYRCPKRVITLINNIRKGDDQNVQVPKEDAIDGFVRLFIVDSNTTDKLELENKIRFQMAMLTHDEDWNIAEEVKTLTLEHDMAASRGGFDEFLLPLSSVSSLRDAALNGTSKNINFITSTLLPFIDAVEKDDSFEVARIIKSGSLLISDSNQSFLLNPIGTLKDIDSNVVEFKKILVNGKVTLHNVLSTIQKFELLSLPDELLVYLSDIEQGEPNEPESDTKLLSDVDKAWGLALNSSIGHVKNYAKYVNETLGYATHQGVKGLEYKRVMAVLDDKFKGFLFDYEKLFGAKDLTKKDIENEDLGKDSALSRTRRLFYVICSRAEQSLAVVAYSNDPIAIEKTAIESEWFSKDEIVLI,not soluble
13,IRVNTNKGGGVWESGAANSQSTSWGSGNGANSGGSRRGWGTPAQNTGTNLPSVEWNKLPSNQHSNDSANGNGKTFTNGWKSTEEEDQGSATSQTNEQSSVWAKTGGTVESDGSTESTGRLEEKGTGESQSRDRRKIDQHTLLQSIVNRTDLDPRVLSNSGWGQTPIKQNTAWDTETSPRGERKTDNGTEAWGSSATQTFNSGACIDKTSPNGNDTSSVSGWGDPKPALRWGDSKGSNCQGGWEDDSAATGMVKSNQWGNCKEEKAAWNDSQKNKQGWGDGQKSSQGWSVSASDNWGETSRNNHWGEANKKSSSGGSDSDRSVSGWNELGKTSSFTWGNNINPNNSSGWDESSKPTPSQGWGDPPKSNQSLGWGDSSKPVSSPDWNKQQDIVGSWGIPPATGKPPGTGWLGGPIPAPAKEEEPTGWEEPSPESIRRKMEIDDGTSAWGDPSKYNYKNVNMWNKNVPNGNSRSDQQAQVHQLLTPASAISNKEASSGSGWGEPWGEPSTPATTVDNGTSAWGKPIDSGPSWGEPIAAASSTSTWGSSSVGPQALSKSGPKSMQDGWCGDDMPLPGNRPTGWEEEEDVEIGMWNSNSSQELNSSLNWPPYTKKMSSKGLSGKKRRRERGMMKGGNKQEEAWINPFVKQFSNISFSRDSPEENVQSNKMDLSGGMLQDKRMEIDKHSLNIGDYNRTVGKGPGSRPQISKESSMERNPYFDKDGIVADESQNMQFMSSQSMKLPPSNSALPNQALGSIAGLGMQNLNSVRQNGNPSMFGVGNTAAQPRGMQQPPAQPLSSSQPNLRAQVPPPLLSPQVPVSLLKYAPNNGGLNPLFGPQQVAMLNQLSQLNQLSQISQLQRLLAQQQRAQSQRSVPSGNRPQQDQQGRPLSVQQQMMQQSRQLDPNLLVKQQTPPSQQQPLHQPAMKSFLDNVMPHTTPELQKGPSPINAFSNFPIGLNSNLNVNMDMNSIKEPQSRLRKWTTVDSISVNTSLDQNSSKHGAISSGFRLEESPFVPYDFMNSSTSPASPPGSIGDGWPRAKSPNGSSSVNWPPEFRPGEPWKGYPNIDPETDPYVTPGSVINNLSINTVREVDHLRDRNSGSSSSLNTTLPSTSAWSSIRASNYNVPLSSTAQSTSARNSDSKLTWSPGSVTNTSLAHELWKVPLPPKNITAPSRPPPGLTGQKPPLSTWDNSPLRIGGGWGNSDARYTPGSSWGESSSGRITNWLVLKNLTPQIDGSTLRTLCMQHGPLITFHLNLPHGNALVRYSSKEEVVKAQKSLHMCVLGNTTILAEFASEEEISRFFAQSQSLTPSPGWQSLGSSQSRLGSLDCSHSFSSRTDLNHWNGAGLSGTNCGDLHGTSLWGTPHYSTSLWGPPSSSDPRGISSPSPINAFLSVDHLGGGGESM,soluble
